# Test results reported in patent US20260242478A1 (published 2026).
# Where two headings read alike, the source gives them in different places. Where no end group is shown, it is not given here.
# B1: Peptide-272 (peptide)
# peptide: LHVYCVPEWMCAGF
# notes: From the Peptide-180 optimisation phage library
# B2: Peptide-273 (peptide)
# peptide: LEPLCVPRWMCVGF
# notes: as for B1
# B3: Peptide-265 (peptide)
# peptide: AEVKCIPQWMCQGF
# notes: as for B1
# B4: Peptide-279 (peptide)
# peptide: YERACIPNWICEGF
# notes: as for B1
# B5: Phage-49 clonal phage peptide (peptide, not shown: large carriers)
# peptide: MSWCPIHLWNECFN
# modifications: cysteine pairing not given here; also: displayed on phage by fusion to pIII, linker and pIII sequence not given here
# B6: Peptide-280 (peptide)
# peptide: TTHVCIPSWMCSGF
# notes: as for B1
# B7: Peptide-223 (peptide)
# peptide: DLRLCKPAWMCYFI
# B8: Peptide-231 (peptide)
# peptide: DLRLCKPAWMCDFI
# B9: Peptide-229 (peptide)
# peptide: VVKACIPTWMCQFV
# B10: Peptide-238 (peptide)
# peptide: LEKLCKPAWMCVNF
# B11: Peptide-218 (peptide)
# peptide: FVPLCKPAWMCSFV
# B12: Peptide-264 (peptide)
# peptide: VQIQCRPAWMCLGF
# notes: as for B1
# B13: Peptide-266 (peptide)
# peptide: TAHHCKPAWMCTGF
# notes: as for B1
# B14: Peptide-215 (peptide)
# peptide: LEKLCIPAWMCEWL
# B15: Peptide-262 (peptide)
# peptide: IVPLCKPAWMCKLF
# notes: as for B1
# B16: Peptide-226 (peptide)
# peptide: LTKLCIPDWMCSEF
# B17: Phage-42 clonal phage peptide (peptide, not shown: large carriers)
# peptide: MDWCPRHLWVHCFN
# B18: Phage-46 clonal phage peptide (peptide, not shown: large carriers)
# peptide: MHWCPIDLWAECYA
# modifications: cysteine pairing not given here; also: displayed on phage, fused to pIII
# B19: Phage-41 clonal phage peptide (peptide, not shown: large carriers)
# peptide: MAWCPRDKWSECFS
# B20: Phage-51 clonal phage peptide (peptide, not shown: large carriers)
# peptide: MDWCPMDLWDYCFN
# modifications: cysteine pairing not given here; also: displayed on phage by fusion to pIII, linker and pIII sequence not given here
# B21: Peptide-269 (peptide)
# peptide: EEPLCRPVWMCEGF
# notes: as for B1
# B22: Peptide-287 (peptide)
# peptide: PERLCTPPWMCLGF
# notes: as for B1
# B23: Peptide-224 (peptide)
# peptide: EGIRCTPIWMCEGF
# B24: Peptide-222 (peptide)
# peptide: FEKWCTPPWMCSLF
# B25: Peptide-281 (peptide)
# peptide: VNHWCVPTWMCAGF
# notes: as for B1
# B26: Phage-362 clonal phage peptide MDWCPRILWHECFS (peptide)
# peptide: MDWCPRILWHECFS
# B27: Peptide-217 (peptide)
# peptide: VGKLCVPEWMCVGL
# B28: Peptide-261 (peptide)
# peptide: YFVQCRPAWMCEGF
# notes: as for B1
# B29: Peptide-276 (peptide)
# peptide: ITPICKPAWICSGF
# notes: as for B1
# B30: Peptide-278 (peptide)
# peptide: PEHLCLPRWMCEGF
# notes: as for B1
# B31: Phage-48 clonal phage peptide (peptide, not shown: large carriers)
# peptide: IDWCPRYLWDECYN
# B32: Peptide-234 (peptide)
# peptide: LEKTCIPTWMCVGF
# B33: Peptide-220 (peptide)
# peptide: FEKLCVPKWMCEGI
# B34: Peptide-216 (peptide)
# peptide: VLKWCRPAWMCEVL
# B35: Peptide-228 (peptide)
# peptide: EFKWCIPSWMCHET
# B36: Peptide-214 (peptide)
# peptide: WEKLCTPAWMCVGF
# B37: Phage-47 clonal phage peptide (peptide, not shown: large carriers)
# peptide: MAWCPVYLWHECFN
# B38: Phage-40 clonal phage peptide (peptide, not shown: large carriers)
# peptide: MDWCPIDMWDQCFN
# B39: Phage-50 clonal phage peptide (peptide, not shown: large carriers)
# peptide: MDWCPPYLWNVCFS
# modifications: cysteine pairing not given here; also: displayed on phage by fusion to pIII, linker and pIII sequence not given here
# B40: Phage-363 clonal phage peptide MNWCPMHLWAECFN (peptide)
# peptide: MNWCPMHLWAECFN
# B41: Peptide-237 (peptide)
# peptide: ISKWCIPEWMCTSP
# B42: Peptide-221 (peptide)
# peptide: IDKLCIPFWMCENL
# B43: Phage-45 clonal phage peptide (peptide, not shown: large carriers)
# peptide: MDWCPRPLWHECFS
# B44: Phage-44 clonal phage peptide (peptide, not shown: large carriers)
# peptide: MDWCPIALWAECFN
# B45: Phage-64 clonal phage peptide (peptide, not shown: large carriers)
# peptide: MDWCPRALWAECFN
# Assays:
# PSMA Fab [1] = target: T1, PSMA Fab; experiment: competition ELISA; peptide 0-100 µM with 0.3 nM PSMA Fab on plate-captured biotinylated PSMA
# T1 construct: also called 006 PSMA Fab; anti-PSMA Fab
# [2] = target: T2, Anti-CD28 scFv (VH - linker 1 - VL) (biotinylated (site not stated)); experiment: phage binding ELISA on captured anti-CD28 scFv; wells pre-incubated with soluble CD28 protein (competitor)
# [3] = target: T2, Anti-CD28 scFv (VH - linker 1 - VL); experiment: phage binding ELISA; biotinylated anti-CD28 scFv on neutravidin plate, clonal phage supernatant, anti-M13 HRP detection
# Description: (§1) Clonal phage were harvested as crude supernatants and screened via standard enzyme linked immunosorbent assays (ELISAs). […] Prior to the addition of clonal phage, wells were incubated with blocking buffer and CD28 soluble protein or blocking buffer alone. Without washing or aspirating, clonal phage supernatants were then added to the wells and incubated for a short time. Wells were then washed followed by detection of bound phage using a horse radish peroxidase conjugated anti-M13 antibody.
# PSMA Fab [4] = target: T1, PSMA Fab; experiment: competition ELISA; peptide 0-100 µM with 0.3 nM PSMA Fab on plate-captured biotinylated PSMA; remark: listed apart in the source
# [5] = target: T3, anti-CD28 scFv (VH - linker 1 - VL) (biotinylated (site not stated)); experiment: phage ELISA; biotinylated anti-CD28 scFv on neutravidin plate, clonal phage supernatant, anti-M13-HRP;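 also: before the phage were added, wells were pre-incubated with soluble CD28 protein in blocking buffer, or with blocking buffer alone, and were not washed in between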
# [6] = target: T3, anti-CD28 scFv (VH - linker 1 - VL); experiment: phage ELISA as above; wells pre-incubated with soluble CD28 (competitor)
# Description: as §1
# T2 sequence (scFv, as listed by the source): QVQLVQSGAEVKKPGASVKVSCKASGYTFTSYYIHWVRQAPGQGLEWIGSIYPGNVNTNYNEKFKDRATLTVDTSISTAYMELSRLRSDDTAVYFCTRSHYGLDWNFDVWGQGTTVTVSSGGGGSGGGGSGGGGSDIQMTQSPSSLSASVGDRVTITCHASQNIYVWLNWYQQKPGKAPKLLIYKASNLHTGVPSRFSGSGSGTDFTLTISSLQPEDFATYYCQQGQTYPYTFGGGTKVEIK
# T3 sequence (scFv, as listed by the source): as above
Binder,IC50 (PSMA Fab [1]) [µM],IC50 (PSMA Fab [4]) [µM],further results
B1,1.92,,
B2,0.9,,
B3,1.78,,
B4,5.18,,
B5,,,CD28 scFv signal in presence of CD28 [2]: 0.284; CD28 scFv signal [3]: 2.06
B6,6.65,,
B7,,1.47,
B8,,1.27,
B9,,4.07,
B10,,1.55,
B11,,2.85,
B12,1.14,,
B13,1.81,,
B14,,2.94,
B15,1.3,,
B16,,2.68,
B17,,,CD28 scFv signal in presence of CD28 [2]: 0.254; CD28 scFv signal [3]: 2.5
B18,,,CD28 scFv signal in presence of CD28 [2]: 0.225; CD28 scFv signal [3]: 2.28
B19,,,CD28 scFv signal in presence of CD28 [2]: 0.147; CD28 scFv signal [3]: 0.853
B20,,,CD28 scFv signal in presence of CD28 [2]: 0.107; CD28 scFv signal [3]: 1.64
B21,9.14,,
B22,2.22,,
B23,,1.88,

Binder,IC50 (PSMA Fab [1]) [µM],IC50 (PSMA Fab [4]) [µM],further results
B24,,4.16,
B25,1.02,,
B26,,,CD28 scFv signal [5]: 1.39; CD28 scFv signal in presence of CD28 [6]: 0.174
B27,,2.49,
B28,1.3,,
B29,3.46,,
B30,2.4,,
B31,,,CD28 scFv signal in presence of CD28 [2]: 0.153; CD28 scFv signal [3]: 2.24
B32,,2.08,
B33,,1.57,
B34,,2.91,
B35,,1.92,
B36,,3.54,
B37,,,CD28 scFv signal in presence of CD28 [2]: 0.351; CD28 scFv signal [3]: 2.27
B38,,,CD28 scFv signal in presence of CD28 [2]: 0.297; CD28 scFv signal [3]: 2.66
B39,,,CD28 scFv signal in presence of CD28 [2]: 0.1; CD28 scFv signal [3]: 1.64
B40,,,CD28 scFv signal [5]: 1.39; CD28 scFv signal in presence of CD28 [6]: 0.14
B41,,2.7,
B42,,2.13,
B43,,,CD28 scFv signal in presence of CD28 [2]: 0.121; CD28 scFv signal [3]: 2.35
B44,,,CD28 scFv signal in presence of CD28 [2]: 0.224; CD28 scFv signal [3]: 2.46
B45,,,CD28 scFv signal in presence of CD28 [2]: 0.339; CD28 scFv signal [3]: 2.68
